# Results published in the RNAGym collection of RNA variant scans (doi:10.1101/gr.219683.116).
# B1: mRNA-splicing (parent)
# chain: AGUUGCUGCUGGGAGCUCCAGCACAGUGAAAUGGACAGAAGGGCAGAGCAA
# Variants of: B1
# Test: exon inclusion enrichment index; higher = more inclusion; WT1 exon 5 minigene, HEK293
row,Variant,exon inclusion enrichment index
1,AGUUCACACAGGGAGCUCCAGCACAGCAAAAUGGACAGAAGGGCAGAGCAA [G5C C6A U7C G8A U10A U27C G28A],0.142
2,AGUUCACACAGGGAGCUCCAGCACAGCUAAAUGGACAGAAGGGCAGAGCAA [G5C C6A U7C G8A U10A U27C G28U],0.0768
3,AGUUCACACAGGGAGCUCCAGCACAGCCAAAUGGACAGAAGGGCAGAGCAA [G5C C6A U7C G8A U10A U27C G28C],0.163
4,AGUUCACCCAGGGAGCUCCAGCACAGUGAAAUGGACAGAAGGGCAGAGCAA [G5C C6A U7C G8C U10A],0.494
5,AGUUCACACCAGGAGCUCCAGCACAGUGAAAUGGACAGAAGGGCAGAGCAA [G5C C6A U7C G8A U10C G11A],1.06
6,AGUUCACACCCGGAGCUCCAGCACAGUGAAAUGGACAGAAGGGCAGAGCAA [G5C C6A U7C G8A U10C G11C],1.58
7,AGUUCACACCUGGAGCUCCAGCACAGUGAAAUGGACAGAAGGGCAGAGCAA [G5C C6A U7C G8A U10C G11U],1.71
8,AGUUCAGGAUGGGAGCUCCAGCACAGUGAAAUGGACAGAAGGGCAGAGCAA [G5C C6A U7G C9A],0.352
9,AGUUCACUUAGGGAGCUCCAGCACAGUGAAAUGGACAGAAGGGCAGAGCAA [G5C C6A U7C G8U C9U U10A],0.0134
10,AGUUCGUUUUGGGAGCUCCAGCACAGUGAAAUGGACAGAAGGGCAGAGCAA [G5C C6G G8U C9U],1.08
11,AGUUCGAGAAGGGAGCUCCAGCACAGUGAAAUGGACAGAAGGGCAGAGCAA [G5C C6G U7A C9A U10A],0.95
12,AGUUCGCGCCGGGAGCUCCAGCACAGUGAAAUGGACAGAAGGGCAGAGCAA [G5C C6G U7C U10C],3.75
13,AGUUCGCGCAGGGAGCUCCAGCACAGUGAAAUGGACAGAAGGGCAGAGCAA [G5C C6G U7C U10A],1.02
14,AGUUCGACCCGGGAGCUCCAGCACAGUGAAAUGGACAGAAGGGCAGAGCAA [G5C C6G U7A G8C U10C],2.57
15,AGUUCAGACAGGGAGCUCCAGCACAGUGAAAUGGACAGAAGGGCAGAGCAA [G5C C6A U7G G8A U10A],0.0223
16,AGUUCGAUAUGGGAGCUCCAGCACAGUGAAAUGGACAGAAGGGCAGAGCAA [G5C C6G U7A G8U C9A],1.06
17,AGUUCGCGCCGGGCACUCCAGCACAGUGAAAUGGACAGAAGGGCAGAGCAA [G5C C6G U7C U10C A14C G15A],1.07
18,AGUUCGCGCUUGGAGCUCCAGCACAGUGAAAUGGACAGAAGGGCAGAGCAA [G5C C6G U7C G11U],2.67
19,AGUUCGCGCUCGGAGCUCCAGCACAGUGAAAUGGACAGAAGGGCAGAGCAA [G5C C6G U7C G11C],2.28
20,AGUUCGCGCUAGGAGCUCCAGCACAGUGAAAUGGACAGAAGGGCAGAGCAA [G5C C6G U7C G11A],0.993
21,AGUUCACACAGGGAGCUCCAGCACAGUGAAACGGACAGAAGGGCAGAGCAA [G5C C6A U7C G8A U10A U32C],0.292
22,AGUUCACACAGGGAGCUCCAGCACAGUGAAAAGGACAGAAGGGCAGAGCAA [G5C C6A U7C G8A U10A U32A],0.0862
23,AGUUCACACAGGGAGCUCCAGCACAGUGAAAGGGACAGAAGGGCAGAGCAA [G5C C6A U7C G8A U10A U32G],0.00606
24,AGUUCGUACCGGGAGCUCCAGCACAGUGAAAUGGACAGAAGGGCAGAGCAA [G5C C6G G8A U10C],2.37
25,AGUUCGUACAGGGAGCUCCAGCACAGUGAAAUGGACAGAAGGGCAGAGCAA [G5C C6G G8A U10A],0.226
26,AGUUCGUCCCGGGAGCUCCAGCACAGUGAAAUGGACAGAAGGGCAGAGCAA [G5C C6G G8C U10C],3.08

row,Variant,exon inclusion enrichment index
1,AGUUCGCUCCGGGAGCUCCAGCACAGUGAAAUGGACAGAAGGGCAGAGCAA [G5C C6G U7C G8U U10C],2.76
2,AGUUCGCCGCGGGAGCUCCAGCACAGUGAAAUGGACAGAAGGGCAGAGCAA [G5C C6G U7C G8C C9G U10C],3.59
3,AGUUCACUGAGGGAGCUCCAGCACAGUGAAAUGGACAGAAGGGCAGAGCAA [G5C C6A U7C G8U C9G U10A],0.381
4,AGUUCGCAGCGGGAGCUCCAGCACAGUGAAAUGGACAGAAGGGCAGAGCAA [G5C C6G U7C G8A C9G U10C],2.31
5,AGUUCACACAGGGAGCUCCAGCACAGUGAAAACGACAGAAGGGCAGAGCAA [G5C C6A U7C G8A U10A U32A G33C],0.174
6,AGUUCACACAGGGAGCUCCAGCACAGUGAAAAAGACAGAAGGGCAGAGCAA [G5C C6A U7C G8A U10A U32A G33A],0.0122
7,AGUUCACACAGGGAGCUCCAGCACAGUGAAAAUGACAGAAGGGCAGAGCAA [G5C C6A U7C G8A U10A U32A G33U],0.0392
8,AGUUCACACAGGGAGCUCCAGCACAGCGAAAUGGACAGAAGGGCAGAGCAA [G5C C6A U7C G8A U10A U27C],0.417
9,AGUUCACACAGGGAGCUCCAGCACAGGGAAAUGGACAGAAGGGCAGAGCAA [G5C C6A U7C G8A U10A U27G],0.0422
10,AGUUCACACAGGGAGCUCCAGCACAGUGAAACAGACAGAAGGGCAGAGCAA [G5C C6A U7C G8A U10A U32C G33A],0.033
11,AGUUCACACAGGGAGCUCCAGCACAGUGAAACCGACAGAAGGGCAGAGCAA [G5C C6A U7C G8A U10A U32C G33C],0.153
12,AGUUCACACAGGGAGCUCCAGCACAGUGAAACUGACAGAAGGGCAGAGCAA [G5C C6A U7C G8A U10A U32C G33U],0.0717
13,AGUUCGCCUCGGGAGCUCCAGCACAGUGAAAUGGACAGAAGGGCAGAGCAA [G5C C6G U7C G8C C9U U10C],2.8
14,AGUUCGCGGGGGGAGCUCCAGCACAGUGAAAUGGACAGAAGGGCAGAGCAA [G5C C6G U7C C9G U10G],0.749
15,AGUUCGCGGAGGGAGCUCCAGCACAGUGAAAUGGACAGAAGGGCAGAGCAA [G5C C6G U7C C9G U10A],2.85
16,AGUUCGCGGCGGGAGCUCCAGCACAGUGAAAUGGACAGAAGGGCAGAGCAA [G5C C6G U7C C9G U10C],2.62
17,AGUUCGAUCCGGGAGCUCCAGCACAGUGAAAUGGACAGAAGGGCAGAGCAA [G5C C6G U7A G8U U10C],2.93
18,AGUUCAGGCAGGGAGCUCCAGCACAGUGAAAUGGACAGAAGGGCAGAGCAA [G5C C6A U7G U10A],0.0115
19,AGUUCAGGCCGGGAGCUCCAGCACAGUGAAAUGGACAGAAGGGCAGAGCAA [G5C C6A U7G U10C],0.429
20,AGUUCGCAUCGGGAGCUCCAGCACAGUGAAAUGGACAGAAGGGCAGAGCAA [G5C C6G U7C G8A C9U U10C],3.11
21,AGUUCGCGGUGGGAGCUCCAGCACAGUGAAAUGGACAGAAGGGCAGAGCAA [G5C C6G U7C C9G],1.96
22,AGUUCGCGUUGGGAGCUCCAGCACAGUGAAAUGGACAGAAGGGCAGAGCAA [G5C C6G U7C C9U],2.47
23,AGUUCGCGAUGGGAGCUCCAGCACAGUGAAAUGGACAGAAGGGCAGAGCAA [G5C C6G U7C C9A],2.73
24,AGUUCGCCACGGGAGCUCCAGCACAGUGAAAUGGACAGAAGGGCAGAGCAA [G5C C6G U7C G8C C9A U10C],3.14
25,AGUUCGACUCGGGAGCUCCAGCACAGUGAAAUGGACAGAAGGGCAGAGCAA [G5C C6G U7A G8C C9U U10C],3.05
